Measurements published in patent US20150218251A1 (NATIONAL CHENG KUNG UNIVERSITY, published 2015).
Like-named read-outs stand apart in the source and are kept apart here.

Assays:
integrin αIIbβ3 [1] = target: T1, integrin αIIbβ3 (UniProt P08514 32-1039; P05106 27-788); test: cell adhesion inhibition assay (Table 4)
T1 construct: whole, on cells
Description: (§1) Briefly, 96-well Immulon-2 microtiter plates (Costar, Corning, N.Y.) were coated with 100 μl of phosphate-buffered saline (PBS: 10 mM phosphate buffer, 0.15M NaCl, pH 7.4) containing substrates at a concentration of 50-500 nM, and incubated overnight at 4° C. […] Non-specific protein binding sites were blocked by incubating each well with 200 μl of heat-denatured 1% bovine serum albumin (BSA, Calbiochem) at room temperature (25° C.) for 1.5 hr. Afterwards, the blocking heat-denatured BSA was discarded and each well was washed twice with 200 μl of PBS.
(§2) Chinese hamster ovary (CHO) cells expressing αvβ3 (CHO-αvβ3) and α5β1 (CHO-α5β1) integrins were maintained in 100 μl of Dulbecco's Modified Eagle's Medium (DMEM) medium. Both CHO-αvβ3 and CHO-α5β1 were kind gifts of Dr. Y. Takada (Scripps Research Institute) established by stable transfection with a neomycin-resistant gene. CHO cells growing in log phase were detached by trypsinization and used in the assay at 3×10⁵ cells/ml. FNIII 9-10, FNIII 10 and variants thereof were added to the cultured cells at the concentrations of 0.001-500 μM and incubated at 37° C. in 5% CO₂ for 15 minutes. The treated cells were then added into the coated plate and incubated at 37° C. in 5% CO₂ for 1 hour. The incubation solution was then discarded and non-adhered cells were removed by washing twice with 200 μl PBS.
(§3) Bound cells were quantified by crystal violet staining. Briefly, the well was fixed with 100 μl of 10% formalin for 10 minutes and dried. Fifty microliters of 0.05% crystal violet were then added into the well at room temperature for 20 minutes. Each well was washed with 200 μl of distilled water four times and dried. Colorization was carried out by adding 150 μl of colorizing solution (50% alcohol and 0.1% acetic acid). The resulting absorbance was read at 600 nm and the readings were correlated with the number of adhering cells.

integrin αvβ3 [2] = target: T2, integrin αvβ3 (UniProt P06756 31-1048; P05106 27-788); test: cell-based or functional assay
integrin α5β1 [3] = target: T3, integrin α5β1 (UniProt P08648 42-1049; P05556 21-798); test: cell-based or functional assay
integrin αIIbβ3 [4] = target: T1, integrin αIIbβ3; test: cell-based or functional assay
integrin αvβ3 [5] = target: T2, integrin αvβ3; test: cell adhesion inhibition assay (Table 4)
Description: as §1, §2, §3

integrin αvβ3 [6] = target: T2, integrin αvβ3; test: cell adhesion inhibition assay (Table 5)
Description: as §1
(§4) Chinese hamster ovary (CHO) cells expressing αvβ3 (CHO-αvβ3) and α5β1 (CHO-α5β1) integrins were maintained in 100 μl of Dulbecco's Modified Eagle's Medium (DMEM) medium. Both CHO-αvβ3 and CHO-α5β1 were kind gifts of Dr. Y. Takada (Scripps Research Institute) established by stable transfection with a neomycin-resistant gene. CHO cells growing in log phase were detached by trypsinization and used in the assay at 3×10⁵ cells/ml. FNIII 9-10, FNIII 10 and variants thereof were added to the cultured cells at the concentrations of 0.001-500 μM and incubated at 37° C. in 5% CO₂ for 15 minutes. […]
(§5) Bound cells were quantified by crystal violet staining. […] The resulting absorbance was read at 600 nm and the readings were correlated with the number of adhering cells.

integrin αIIbβ3 [7] = target: T1, integrin αIIbβ3; test: cell adhesion inhibition assay (Table 5)
Description: as §1, §4, §5

integrin αvβ3 [8] = target: T2, integrin αvβ3; test: cell-based or functional assay; remark: listed apart in the source
integrin α5β1 [9] = target: T3, integrin α5β1; test: cell-based or functional assay; remark: listed apart in the source
integrin αIIbβ3 [10] = target: T1, integrin αIIbβ3; test: cell-based or functional assay; remark: listed apart in the source

T1 sequence (P08514 32-1039, chain 1 of 2): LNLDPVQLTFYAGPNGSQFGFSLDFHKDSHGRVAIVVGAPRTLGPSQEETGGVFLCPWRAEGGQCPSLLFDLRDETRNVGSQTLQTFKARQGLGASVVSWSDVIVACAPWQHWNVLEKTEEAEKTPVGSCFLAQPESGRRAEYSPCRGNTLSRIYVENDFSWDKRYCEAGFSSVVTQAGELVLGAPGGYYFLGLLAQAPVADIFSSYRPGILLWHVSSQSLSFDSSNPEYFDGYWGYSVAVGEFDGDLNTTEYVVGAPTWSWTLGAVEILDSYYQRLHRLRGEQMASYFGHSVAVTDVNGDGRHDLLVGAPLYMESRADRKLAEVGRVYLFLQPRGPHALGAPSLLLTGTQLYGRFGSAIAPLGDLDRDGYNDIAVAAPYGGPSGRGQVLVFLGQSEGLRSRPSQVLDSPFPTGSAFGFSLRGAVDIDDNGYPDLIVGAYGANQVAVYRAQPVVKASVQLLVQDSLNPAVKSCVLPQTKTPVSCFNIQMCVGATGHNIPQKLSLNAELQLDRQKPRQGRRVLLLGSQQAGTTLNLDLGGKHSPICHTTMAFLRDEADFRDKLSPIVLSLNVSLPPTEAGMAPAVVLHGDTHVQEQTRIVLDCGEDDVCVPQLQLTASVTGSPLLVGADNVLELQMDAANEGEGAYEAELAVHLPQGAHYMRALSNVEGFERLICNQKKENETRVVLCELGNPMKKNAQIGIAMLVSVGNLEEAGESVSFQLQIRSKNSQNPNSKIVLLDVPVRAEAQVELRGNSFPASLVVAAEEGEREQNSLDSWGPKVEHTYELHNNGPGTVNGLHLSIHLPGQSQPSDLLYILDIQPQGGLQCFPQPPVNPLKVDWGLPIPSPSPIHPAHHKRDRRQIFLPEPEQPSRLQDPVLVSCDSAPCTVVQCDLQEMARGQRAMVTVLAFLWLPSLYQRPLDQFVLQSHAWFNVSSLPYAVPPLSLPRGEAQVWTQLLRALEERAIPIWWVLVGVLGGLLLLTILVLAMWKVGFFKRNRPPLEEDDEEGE
T1 sequence (P05106 27-788, chain 2 of 2): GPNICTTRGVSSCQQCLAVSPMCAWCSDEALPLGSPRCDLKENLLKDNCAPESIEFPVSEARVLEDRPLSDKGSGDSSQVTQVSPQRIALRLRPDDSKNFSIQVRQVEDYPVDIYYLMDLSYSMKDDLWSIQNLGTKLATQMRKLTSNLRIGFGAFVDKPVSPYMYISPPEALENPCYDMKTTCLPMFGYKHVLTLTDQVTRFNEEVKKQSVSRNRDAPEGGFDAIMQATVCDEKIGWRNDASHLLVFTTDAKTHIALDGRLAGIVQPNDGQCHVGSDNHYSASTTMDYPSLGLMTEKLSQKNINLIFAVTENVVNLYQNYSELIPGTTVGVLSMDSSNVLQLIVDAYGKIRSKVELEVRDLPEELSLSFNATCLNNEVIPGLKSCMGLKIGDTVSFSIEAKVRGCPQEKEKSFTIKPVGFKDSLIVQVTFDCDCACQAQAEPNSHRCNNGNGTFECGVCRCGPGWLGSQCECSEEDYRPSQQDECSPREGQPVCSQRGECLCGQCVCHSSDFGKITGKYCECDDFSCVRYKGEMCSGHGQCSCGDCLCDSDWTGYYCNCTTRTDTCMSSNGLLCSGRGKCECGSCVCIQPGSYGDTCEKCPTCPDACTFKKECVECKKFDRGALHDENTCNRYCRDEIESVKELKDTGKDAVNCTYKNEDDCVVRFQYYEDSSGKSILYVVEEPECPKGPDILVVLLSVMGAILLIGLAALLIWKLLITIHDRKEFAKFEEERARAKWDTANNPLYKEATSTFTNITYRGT
T3 sequence (P08648 42-1049, chain 1 of 2): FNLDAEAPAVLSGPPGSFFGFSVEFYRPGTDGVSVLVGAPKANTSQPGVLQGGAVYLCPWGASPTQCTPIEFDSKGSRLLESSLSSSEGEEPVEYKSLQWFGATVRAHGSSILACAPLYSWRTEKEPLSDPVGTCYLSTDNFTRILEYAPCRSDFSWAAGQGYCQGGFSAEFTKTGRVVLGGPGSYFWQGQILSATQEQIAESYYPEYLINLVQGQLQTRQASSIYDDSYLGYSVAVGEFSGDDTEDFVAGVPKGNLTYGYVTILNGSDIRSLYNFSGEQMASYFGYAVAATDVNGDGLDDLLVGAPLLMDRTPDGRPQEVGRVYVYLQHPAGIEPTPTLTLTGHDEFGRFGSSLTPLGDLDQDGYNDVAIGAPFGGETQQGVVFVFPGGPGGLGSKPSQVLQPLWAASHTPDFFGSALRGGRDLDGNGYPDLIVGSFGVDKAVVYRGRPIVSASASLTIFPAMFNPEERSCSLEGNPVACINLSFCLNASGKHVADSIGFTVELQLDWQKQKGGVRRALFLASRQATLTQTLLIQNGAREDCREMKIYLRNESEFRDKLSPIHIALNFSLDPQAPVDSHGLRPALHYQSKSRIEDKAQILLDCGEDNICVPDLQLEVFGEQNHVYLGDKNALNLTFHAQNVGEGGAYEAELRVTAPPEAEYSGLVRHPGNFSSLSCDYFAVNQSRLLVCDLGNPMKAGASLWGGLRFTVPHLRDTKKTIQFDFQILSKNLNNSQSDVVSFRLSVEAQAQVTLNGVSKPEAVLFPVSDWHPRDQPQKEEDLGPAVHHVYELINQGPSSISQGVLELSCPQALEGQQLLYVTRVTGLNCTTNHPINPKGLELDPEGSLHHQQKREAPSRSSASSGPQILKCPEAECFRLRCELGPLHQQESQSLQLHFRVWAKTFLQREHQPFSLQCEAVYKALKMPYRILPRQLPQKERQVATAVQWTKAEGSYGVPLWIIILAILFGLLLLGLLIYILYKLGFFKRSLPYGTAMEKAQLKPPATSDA
T3 sequence (P05556 21-798, chain 2 of 2): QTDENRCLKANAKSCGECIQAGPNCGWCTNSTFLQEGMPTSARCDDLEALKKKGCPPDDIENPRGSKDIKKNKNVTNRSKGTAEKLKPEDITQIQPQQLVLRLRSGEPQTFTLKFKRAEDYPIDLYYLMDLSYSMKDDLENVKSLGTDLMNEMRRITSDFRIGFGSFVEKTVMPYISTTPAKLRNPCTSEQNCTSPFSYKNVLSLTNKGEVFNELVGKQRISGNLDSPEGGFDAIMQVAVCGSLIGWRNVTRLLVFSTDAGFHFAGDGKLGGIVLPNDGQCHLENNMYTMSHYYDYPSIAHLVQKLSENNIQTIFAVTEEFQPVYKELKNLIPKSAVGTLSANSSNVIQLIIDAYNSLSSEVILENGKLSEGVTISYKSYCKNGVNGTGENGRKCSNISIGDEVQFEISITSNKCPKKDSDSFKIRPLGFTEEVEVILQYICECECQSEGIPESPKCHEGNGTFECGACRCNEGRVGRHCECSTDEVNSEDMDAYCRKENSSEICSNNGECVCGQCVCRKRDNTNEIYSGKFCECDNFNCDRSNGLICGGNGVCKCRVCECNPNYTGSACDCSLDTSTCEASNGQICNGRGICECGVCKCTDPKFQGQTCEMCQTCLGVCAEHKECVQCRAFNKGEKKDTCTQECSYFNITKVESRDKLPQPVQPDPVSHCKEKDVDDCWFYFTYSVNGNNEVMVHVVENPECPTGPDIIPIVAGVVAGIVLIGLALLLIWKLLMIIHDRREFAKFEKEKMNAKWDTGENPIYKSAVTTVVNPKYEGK
T2 sequence (P06756 31-1048, chain 1 of 2): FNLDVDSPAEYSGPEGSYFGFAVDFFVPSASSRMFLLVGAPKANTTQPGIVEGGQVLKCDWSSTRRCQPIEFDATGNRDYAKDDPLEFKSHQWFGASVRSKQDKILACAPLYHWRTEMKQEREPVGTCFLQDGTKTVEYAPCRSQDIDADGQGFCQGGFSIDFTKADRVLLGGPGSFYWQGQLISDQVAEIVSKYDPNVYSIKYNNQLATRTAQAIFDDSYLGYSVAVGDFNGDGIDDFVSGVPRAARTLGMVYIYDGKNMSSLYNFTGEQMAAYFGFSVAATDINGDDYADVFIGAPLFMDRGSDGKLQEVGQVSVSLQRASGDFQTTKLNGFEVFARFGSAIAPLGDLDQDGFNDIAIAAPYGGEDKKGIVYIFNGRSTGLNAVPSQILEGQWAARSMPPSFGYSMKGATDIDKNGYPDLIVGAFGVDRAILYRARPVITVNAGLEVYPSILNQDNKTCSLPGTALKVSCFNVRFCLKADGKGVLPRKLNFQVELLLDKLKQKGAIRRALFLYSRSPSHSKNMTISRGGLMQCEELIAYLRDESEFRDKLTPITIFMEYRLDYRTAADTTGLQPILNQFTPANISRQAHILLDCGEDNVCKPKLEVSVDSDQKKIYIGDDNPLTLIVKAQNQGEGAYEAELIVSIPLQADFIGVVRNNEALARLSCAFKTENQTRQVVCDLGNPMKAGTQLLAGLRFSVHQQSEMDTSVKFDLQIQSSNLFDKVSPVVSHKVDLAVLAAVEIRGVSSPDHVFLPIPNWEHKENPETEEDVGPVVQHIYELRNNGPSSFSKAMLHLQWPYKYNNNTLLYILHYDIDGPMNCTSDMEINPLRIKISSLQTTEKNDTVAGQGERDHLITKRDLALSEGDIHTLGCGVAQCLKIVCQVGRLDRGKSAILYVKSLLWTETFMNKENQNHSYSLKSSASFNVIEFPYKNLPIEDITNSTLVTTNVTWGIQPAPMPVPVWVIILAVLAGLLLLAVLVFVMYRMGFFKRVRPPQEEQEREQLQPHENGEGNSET
T2 sequence (P05106 27-788, chain 2 of 2): as the sequence (P05106 27-788, chain 2 of 2) above

| Binder | binding result (integrin αIIbβ3 [1]) | IC50, cell adhesion assay (integrin αvβ3 [2]) | IC50, cell adhesion assay (integrin α5β1 [3]) | percentage of inhibition, cell adhesion assay (integrin α5β1 [3]) | IC50, cell adhesion assay (integrin αIIbβ3 [4]) | IC50, inhibition of ADP-induced platelet aggregation (integrin αIIbβ3 [4]) | percentage of inhibition, cell adhesion assay (integrin αIIbβ3 [4]) | fold increase of binding affinity against SEQ ID NO:48 (integrin αvβ3 [5]) | percentage of inhibition, ADP-induced platelet aggregation (integrin αIIbβ3 [4]) | binding result (integrin αvβ3 [6]) | binding result (integrin αIIbβ3 [7]) | IC50, cell adhesion assay (integrin αvβ3 [8]) | percentage of inhibition, cell adhesion assay (integrin αvβ3 [8]) | IC50, cell adhesion assay (integrin α5β1 [9]) | IC50, cell adhesion assay (integrin αIIbβ3 [10]) | IC50, inhibition of ADP-induced platelet aggregation (integrin αIIbβ3 [10]) | percentage of inhibition, cell adhesion assay (integrin αIIbβ3 [10]) |
| --- | --- | --- | --- | --- | --- | --- | --- | --- | --- | --- | --- | --- | --- | --- | --- | --- | --- |
| Wild type FNIII 10 (SEQ ID NO: 2, …) (ligand, also called FNIII 10 wild type; human fibronectin type III domain module 10) not shown | no binding (tested: >9180 nM) | 4.58 µM | > 4.59 µM | 39% | > 9.18 µM | ~45 µM | 0% | – | – | – | – | – | – | – | – | – | – |
| FNIII 10 C-X7-C (SEQ ID NO: 6, VCPRGDMPDCSK) (designed binder) HHHHHHVSDVPRDLEVVAATPTSLLISWDAPAVTVRYYRITYGETGGNSPVQEFTVPGSKSTATISGLKPGVDYTITVYAVCPRGDMPDCSKPISINYRT | no binding (tested: >62124 nM) | 0.093 µM | > 73.2 µM | 42% | > 62.1 µM | ~62 µM | 19% | 7 fold | – | – | – | – | – | – | – | – | – |
| FNIII 10 C-X7-C (SEQ ID NO: 8, VCPRGDWNECSK) (designed binder, Engineered intradomain disulfide bond Cys1491-Cys1499; exact N-terminus uncertain) HHHHHHVSDVPRDLEVVAATPTSLLISWDAPAVTVRYYRITYGETGGNSPVQEFTVPGSKSTATISGLKPGVDYTITVYAVCPRGDWNECSKPISINYRT | no binding (tested: >4494 nM) | 0.418 µM | > 4.49 µM | 48% | > 4.49 µM | ~10 µM | 0% | – | – | – | – | – | – | – | – | – | – |
| FNIII 10 C-X7-C (SEQ ID NO: 10, VCARGDNPDCSK) (designed binder) HHHHHHVSDVPRDLEVVAATPTSLLISWDAPAVTVRYYRITYGETGGNSPVQEFTVPGSKSTATISGLKPGVDYTITVYAVCARGDNPDCSKPISINYRT | no binding (tested: >4546 nM) | 0.432 µM | > 4.55 µM | 0% | > 4.55 µM | > 25.5 µM | 0% | – | 2% | – | – | – | – | – | – | – | – |
| FNIII 10 variant (SEQ ID NO: 48, VTPRGDMPDSSK) (designed binder, also called FNIII 10 (PRGDMPD) protein; FNIII 10 PRGDMPD variant) HHHHHHVSDVPRDLEVVAATPTSLLISWDAPAVTVRYYRITYGETGGNSPVQEFTVPGSKSTATISGLKPGVDYTITVYAVTPRGDMPDSSKPISINYRT | no binding (tested: >9073 nM) | 0.645 µM | > 6.8 µM | 31.7% | > 9.07 µM | > 22.2 µM | 0% | – | 4% | – | – | – | – | – | – | – | – |
| Control FNIII 10 mutant (SEQ ID NO: 50, VTPRGDWNEGSK) (designed binder, exact N-terminus uncertain; also called FNIII 10 variant) HHHHHHVSDVPRDLEVVAATPTSLLISWDAPAVTVRYYRITYGETGGNSPVQEFTVPGSKSTATISGLKPGVDYTITVYAVTPRGDWNEGSKPISINYRT | no binding (tested: >9027 nM) | 0.908 µM | > 4.51 µM | 32.5% | > 9.03 µM | > 6.45 µM | 0% | – | 14% | – | – | – | – | – | – | – | – |
| Wild type FNIII 9-10 (SEQ ID NO: 4) (ligand, exact N-terminus uncertain; also called Wild-type human FN III 9-10; Control) not shown | – | – | – | – | – | – | – | – | – | no binding (tested: >3119 nM) | no binding (tested: >4798 nM) | > 3.12 µM | 33.2% | 0.245 µM | > 4.8 µM | ~20 µM | 0% |
